Results published in patent publication US20240309087A1 (SHANGHAI JUNSHI BIOSCIENCES, published 2024).
One block for each binder: values may come before it.

Key:
[1] = target: T1, human CD112R on CHO-CD112R cells (human, UniProt Q6DKI7 41-326); experiment: FACS on CHO-CD112R cells; EC50 Ref/EC50 antibody
T1 construct: whole, on cells; also called hCD112R; PVRIG
T1 sequence (looked up): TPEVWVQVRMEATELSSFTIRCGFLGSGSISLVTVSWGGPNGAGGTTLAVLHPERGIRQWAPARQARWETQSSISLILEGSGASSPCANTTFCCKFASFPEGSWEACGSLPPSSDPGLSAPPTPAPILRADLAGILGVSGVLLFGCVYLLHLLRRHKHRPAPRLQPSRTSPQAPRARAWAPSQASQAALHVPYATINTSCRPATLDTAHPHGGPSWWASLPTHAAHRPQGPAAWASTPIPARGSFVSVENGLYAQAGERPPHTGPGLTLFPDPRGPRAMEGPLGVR
Procedure, shortened: (§1)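 CHO cells stably expressing human CD112R (Met1-Arg326) incubated 30 min at 4 °C with antibody, top 50 μg/mL, 5-fold dilutions, 12 points. Fluorescent secondary antibody added, 30 min at 4 °C. MFI by flow cytometry; EC50 from fitted dose-response curves, with reference anti-CD112R and anti-KLH IgG4 controls.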

[2] = target: T1, human CD112R on CHO-CD112R cells; experiment: FACS on CHO-CD112R cells
Procedure, shortened: as §1

[3] = target: T2, recombinant cynomolgus monkey CD112R antigen (cynomolgus monkey, UniProt A0A2K5WVV8 1-322); experiment: ELISA on coated recombinant cynomolgus monkey CD112R, OD 450 nm, ambiguous fit; unit from the axis
T2 construct: bought
T2 sequence: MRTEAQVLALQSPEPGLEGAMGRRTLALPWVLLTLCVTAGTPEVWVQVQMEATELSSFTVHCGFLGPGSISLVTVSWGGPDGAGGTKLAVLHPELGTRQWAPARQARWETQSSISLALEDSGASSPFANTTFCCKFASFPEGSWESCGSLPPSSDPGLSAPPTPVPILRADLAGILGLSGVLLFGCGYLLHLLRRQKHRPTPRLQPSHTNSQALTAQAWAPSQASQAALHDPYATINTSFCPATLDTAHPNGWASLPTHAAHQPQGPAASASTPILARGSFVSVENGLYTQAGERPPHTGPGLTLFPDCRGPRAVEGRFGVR
Protocol: A plate was coated with a recombinant cynomolgus monkey CD112R antigen (Acrobiosystems, Cat No. PVG-C5259) at a fixed concentration, and the chimeric anti-CD112R antibodies diluted in a gradient (initial concentration: 1 μg/mL, 2.5-fold gradient dilution, 12 concentration gradients in total) were added to bind to the antigen. Horseradish peroxidase (HRP)-conjugated mouse anti-human IgG4 Fc (Southern Biotech, 9200-05) was subjected to a 5000-fold dilution and used as a detection antibody for detection. The color development was performed with 0.1 mg/mL TMB, and finally stopped with 2 M hydrochloric acid. […] EC₅₀ was obtained by fitting with a four-parameter logistic regression (4PL) model.

[4] = target: T3, hCD112R mFC recombinant protein (human; murine, UniProt Q6DKI7 41-160); experiment: ELISA, coated hCD112R-ECD-mFC
T3 construct: range 41-160; expressed in 293E cells; also called hCD112R ECD mFC; hCD112R-ECD-mFC; not shown: murine IgG2a Fc domain (MX2-mFc vector)
T3 sequence (looked up): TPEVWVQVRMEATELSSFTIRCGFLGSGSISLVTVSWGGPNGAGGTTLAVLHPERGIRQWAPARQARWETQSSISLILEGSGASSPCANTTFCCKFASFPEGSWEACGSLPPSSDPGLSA
Procedure, shortened: (§2)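 Plates coated with hCD112R-ECD-mFC at 1.5 μg/mL; humanized antibodies titrated from 1 μg/mL, 2.5-fold, 12 points. Bound antibody detected with HRP anti-human IgG Fc and TMB, read at 420/620 nm; EC50 from 4PL fit, COM701 and anti-KLH hu-IgG4 as controls.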

[5] = target: T2, recombinant cynomolgus monkey CD112R …; experiment: ELISA, coated cynomolgus monkey CD112R
Protocol: (§3) Plates were coated with a recombinant cynomolgus monkey CD112R antigen (purchased from Acrobiosystems, Cat No. PVG-C5259) and a mouse CD112R antigen (purchased from Acrobiosystems, Cat No. PVG-M5257) at fixed concentrations, respectively, and the humanized anti-CD112R antibodies diluted in a gradient (initial concentration: 1 μg/mL, 2.5-fold gradient dilution, 12 concentration gradients in total) were added to bind to the antigens, HRP-conjugated mouse anti-human IgG4 Fc (Southern Biotech. 9200-05) was subjected to a 5000-fold dilution and used as detection antibody for detection. The color development was performed with 0.1 mg/mL TMB, and finally stopped with 2 M hydrochloric acid. The plates were read at 420 nm/620 nm. EC₅₀ was obtained by fitting with a four-parameter logistic regression (4PL) model.

[6] = target: T4, human CD112R on Jurkat CD112R effector cells (human, UniProt Q6DKI7 1-326); experiment: cell-based or functional assay
T4 sequence (looked up): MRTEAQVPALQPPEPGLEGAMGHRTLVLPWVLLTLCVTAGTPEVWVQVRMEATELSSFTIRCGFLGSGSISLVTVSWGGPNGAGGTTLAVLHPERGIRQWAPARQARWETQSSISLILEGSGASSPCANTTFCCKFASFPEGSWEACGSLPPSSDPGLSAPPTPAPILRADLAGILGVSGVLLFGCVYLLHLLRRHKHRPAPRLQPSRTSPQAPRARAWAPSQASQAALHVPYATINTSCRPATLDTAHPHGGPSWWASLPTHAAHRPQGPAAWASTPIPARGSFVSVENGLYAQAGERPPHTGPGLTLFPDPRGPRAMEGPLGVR

[7] = target: T3, hCD112R mFC recombinant protein; experiment: FACS competition, hCD112R mFc on CHO CD112 cells
Procedure, shortened: (§4)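 CHO cells overexpressing human CD112 were co-incubated 30 min at 4 °C with hCD112R mFc (5 μg/mL) and humanized anti-CD112R antibodies (from 100 μg/mL, 3-fold, 10 points). Bound fusion protein detected with anti-mouse IgG Fc secondary by flow cytometry; IC50 from four-parameter fit of MFI. COM701 served as positive control, anti-KLH hu-IgG4 as negative.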

[8] = target: T3, hCD112R mFC recombinant protein; experiment: ELISA, coated hCD112R-ECD-mFC; EC50 COM701/EC50 antibody
Procedure, shortened: as §2

[9] = target: T3, hCD112R mFC recombinant protein; experiment: FACS competition, hCD112R mFc on CHO CD112 cells; IC50 COM701/IC50 antibody
Procedure, shortened: as §4

[10] = target: T5, mouse CD112R antigen (mouse); experiment: ELISA on coated mouse CD112R, OD 450 nm, fit of a nearly flat curve; unit from the axis
T5 construct: bought
Protocol: as §3, with “The plates were read at 420 nm/620 nm.” left out

Relative activity (%) [1]: 572%
EC50 [2]: 0.294 µg/mL
EC50 [3]: ~27600 µg/mL
B1: Chi-18 (antibody, V domains shown)
VH: EVQLQQSGAELVKPGASVKISCKASGYTFTDYNMDWVKQSHGKSLEWIGDIHPKYDRTSYNQNFKGKATLTVDKSSRTAYMELRSLTSEDTAVYFCVRINDFDEGFAMDYWGQGTSVTVSS
VL: QIVLTQSPAIMSVSPGEKVTMTCSATSSINYMHWYQQKSGTSPKRWIYDTSKLASGVPARFSGSGSGTSYSLTISNMEAEDAATYYCQQWTSNPLTFGAGTKLELK
notes: chimeric

EC50 [4]: 0.00568 µg/mL
EC50 [5]: 0.00309 µg/mL
EC50, CD112R/CD112 reporter [6]: 0.018 µg/mL
Relative activity (%), EC50 COM701/EC50 antibody [6]: 415%
IC50 [7]: 2.52 µg/mL
Relative activity (%) [8]: 161%
Relative activity (%) [9]: 95.5%
EC50 [10]: 1870 µg/mL
B2: Hu52 (antibody, human IgG4 S228P, kappa)
heavy: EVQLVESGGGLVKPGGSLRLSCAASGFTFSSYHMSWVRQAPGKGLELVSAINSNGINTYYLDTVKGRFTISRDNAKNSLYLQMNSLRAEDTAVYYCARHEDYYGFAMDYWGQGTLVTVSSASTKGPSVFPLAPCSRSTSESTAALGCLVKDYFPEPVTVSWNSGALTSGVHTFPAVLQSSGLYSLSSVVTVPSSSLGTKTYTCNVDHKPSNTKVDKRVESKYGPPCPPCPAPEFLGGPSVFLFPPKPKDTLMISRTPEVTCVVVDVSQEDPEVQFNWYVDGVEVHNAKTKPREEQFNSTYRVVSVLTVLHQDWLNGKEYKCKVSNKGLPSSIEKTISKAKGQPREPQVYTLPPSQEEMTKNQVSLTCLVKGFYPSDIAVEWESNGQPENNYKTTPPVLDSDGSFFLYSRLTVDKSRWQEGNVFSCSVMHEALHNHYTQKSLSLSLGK
light: DIVMTQSPDSLAVSLGERATINCKASQSVSNDVAWYQQKPGQPPKLLIYYVSHRFTGVPDRFSGSGSGTDFTLTISSLQAEDVAVYFCHQAYRSPWTFGQGTKLEIKRTVAAPSVFIFPPSDEQLKSGTASVVCLLNNFYPREAKVQWKVDNALQSGNSQESVTEQDSKDSTYSLSSTLTLSKADYEKHKVYACEVTHQGLSSPVTKSFNRGEC
notes: humanized; 7C2VH1 + 6A10VL2
